Results reported in patent US20120225060A1.
Read-outs that look alike come from different tables or passages of the source.

What was measured:
[1] = molecular target: recombinant human IL-6R-extracellular domain (ECD) (human) (UniProt P08887); test: direct ELISA on IL-6R
[2] = molecular target: IL-6R on human myeloma U266B1 cells (human) (UniProt P08887); test: FACS binding to IL-6R on U266B1 cells
[3] = molecular target: IL-6R on human myeloma U266B1 cells (human) (UniProt P08887); test: FACS binding to IL-6R on U266B1 cells; remark: listed apart in the source
[4] = molecular target: IL-6R on human myeloma U266B1 cells (human) (UniProt P08887); test: cell-based or functional assay
[5] = molecular target: recombinant human IL-6R-extracellular domain (ECD) (human) (UniProt P08887); test: SPR
[6] = molecular target: IL-6R on human myeloma U266B1 cells (human) (UniProt P08887); test: FACS on U266B1 cells
[7] = molecular target: IL-6R on human myeloma U266B1 cells (human) (UniProt P08887); test: cell-based or functional assay; remark: listed apart in the source
[8] = molecular target: recombinant human IL-6R-extracellular domain (ECD) (human) (UniProt P08887); test: receptor-ligand ELISA, blocking of IL-6 binding to IL-6R
[9] = molecular target: recombinant human IL-6R-extracellular domain (ECD) (human) (UniProt P08887); test: as above; remark: listed apart in the source

Sequence of recombinant human IL-6R-extracellular domain (ECD) (human) (P08887 20-365): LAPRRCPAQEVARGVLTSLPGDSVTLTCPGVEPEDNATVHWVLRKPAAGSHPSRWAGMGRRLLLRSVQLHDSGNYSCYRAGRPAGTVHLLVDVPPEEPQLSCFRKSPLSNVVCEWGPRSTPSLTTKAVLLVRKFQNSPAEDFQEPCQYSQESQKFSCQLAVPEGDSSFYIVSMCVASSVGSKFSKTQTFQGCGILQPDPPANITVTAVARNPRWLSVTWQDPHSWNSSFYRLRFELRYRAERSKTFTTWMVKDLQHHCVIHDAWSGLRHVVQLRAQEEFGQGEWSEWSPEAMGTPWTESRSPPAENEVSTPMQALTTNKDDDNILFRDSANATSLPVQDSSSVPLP
Sequence of IL-6R on human myeloma U266B1 cells (human) (P08887 20-468): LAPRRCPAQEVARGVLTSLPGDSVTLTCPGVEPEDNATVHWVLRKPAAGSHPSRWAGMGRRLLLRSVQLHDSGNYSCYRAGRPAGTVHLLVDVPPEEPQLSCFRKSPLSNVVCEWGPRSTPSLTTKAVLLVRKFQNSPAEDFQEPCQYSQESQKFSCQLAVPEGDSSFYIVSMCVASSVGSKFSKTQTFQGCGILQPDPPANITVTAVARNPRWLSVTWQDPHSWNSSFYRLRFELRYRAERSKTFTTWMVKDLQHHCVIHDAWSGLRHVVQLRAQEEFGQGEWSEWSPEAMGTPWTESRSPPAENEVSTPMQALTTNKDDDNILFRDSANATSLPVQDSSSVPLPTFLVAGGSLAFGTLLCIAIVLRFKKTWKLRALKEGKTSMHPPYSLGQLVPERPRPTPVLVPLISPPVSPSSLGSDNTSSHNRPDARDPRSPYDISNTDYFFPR

EC50 [1]: 0.0458 µg/mL | EC50 [2]: 0.206 µg/mL | EC50 [3]: 0.602 µg/mL | TF-1 proliferation IC50 [4]: 0.04 µg/mL | Kd [5]: 3.85 nM | koff [5]: 0.00097 s⁻¹ | kon [5]: 252000 M⁻¹ s⁻¹ | EC50 (read off the curve) [6]: 0.6 µg/mL | TF-1 proliferation IC50 [7]: 0.214 µg/mL | IC50 [8]: 0.56 µg/mL | IC50 [9]: 1.1 µg/mL
B1: Tocilizumab (antibody, part only; not given: constant regions, V domains shown, not shown: another chain or arm of the molecule)
VH: QVQLQESGPGLVRPSQTLSLTCTVSGYSITSDHAWSWVRQPPGRGLEWIGYISYSGITTYNPSLKSRVTMLRDTSKNQFSLRLSSVTAADTAVYYCARSLARTTAMDYWGQGSLVTVSS
VL: DIQMTQSPSSLSASVGDRVTITCRASQDISSYLNWYQQKPGKAPKLLIYYTSRLHSGVPSRFSGSGSGTDFTFTISSLQPEDIATYYCQQGNTLPYTFGQGTKVEIK
